Assays:
Assay in all cases: SEC-MALS
6×His-SYP-3 (C. elegans) = 6×His-SYP-3 (C. elegans) (UniProt O62238)
6×His-SYP-3 = molecular target: T1, 6×His-SYP-3 (C. elegans, UniProt O62238 1-224)
T1 sequence: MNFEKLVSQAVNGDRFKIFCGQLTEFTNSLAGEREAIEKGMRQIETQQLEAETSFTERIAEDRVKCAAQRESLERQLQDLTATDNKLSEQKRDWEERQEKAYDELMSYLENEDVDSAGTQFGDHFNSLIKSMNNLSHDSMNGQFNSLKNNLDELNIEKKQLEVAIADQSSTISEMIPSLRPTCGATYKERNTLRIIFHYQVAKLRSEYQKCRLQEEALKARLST

SEC-MALS = molecular target: the molecule itself

## SYP-1 (recombinant, untagged) (natural protein)
6×His-SYP-3 (C. elegans)
  stoichiometry N (copies of each protein in the complex): 4

## SYP-5 (recombinant, untagged) (natural protein)
6×His-SYP-3 (C. elegans)
  stoichiometry N (copies of each protein in the complex): 4

B1: SYP-2 (recombinant, untagged) (natural protein)
chain: MNSAHRSSLKKRPGPQDDRRVSFASPVSSSQKTAAVTVAAQTKQPAKAKNLRTMHSTPKKSKPAHDVADIISLVSKQSDILDDVSEIEHKMIKQAKMTQDLTMELANSIERIANMALAESKLSDQMEKQSKKLISLEGKTKELVEKANNWSKTLENRVDARSHHSTCLNDVQAAIKIINNAKINNDGFSEDFSAHYDKLLDLVETLEPWADKL
6×His-SYP-3
  stoichiometry N: 4 copies of each protein in the complex

B2: SYP-4 (recombinant, untagged) (natural protein)
chain: MSFPTLQVRPNEKNPKVLRCHEFLRQSNQLVERNMINTEGRKMLAKLLTKMVSEAKGIYALDERRAELAKSGKLQEKLKSAYQTSLTVMEDRLHIAELSRQVQEKKLTVQQKYYECDDLRKSVQETNTEARRVQEINEQRLVDTTRATEELIVKSASILKNLENSSDVHKLRAMEEEKRILEEVVEGLRDQKKCLADDIRTKKATLKAESKKSFEKTVIECAKHYKLHQSLMPKLDKSKRSLETLKDEEENRRICGSLSLDETMQFDRSFILASMDKTNKPEKAVQQLTSKSSEVSITPQISETAKSSFSKEPIPTQHPMEVGEEPVIEHSAEESVHIEPPNVTEIREVVPQITIQPTRQDSVVQRDAEELDTSAVPSPQPESILDEPEEEEEELSNHENHADQSMDVMEVDQEVPEESPMEVGEQEEIEQPSVFKDILATEQAALSQEQEPEIVEKQADNDVQFVDDQQVGAQLDVEDEEEVMSENGSNKSNNFSFNFFGNSKGTSAGEGGGEGNFDFNFDGIGAGDDGSNNGGSTGDLDFLNYDGEDEGKGSGNTQSDPFGFASNGNAAGGGGDGSFNFNFDGDGEGGATSGAGGNSTSFFNF
6×His-SYP-3
  stoichiometry N: 4 copies of each protein in the complex

B3: 6×His-SKR-1^WT (natural protein)
chain: MADQKKVSEAAKEREIKISSSDNEIFLVPRNVIRLSNTINTLLMDLGLDDEEGTNAEPIPVQNVTASILKKVISWCNHHHSDPISTEDSDNREKRTDDIGSWDVEFLKVDQGTLFELILAANYLDIKGLLDVTCKTVANMIKGKSPEEIRRTFNIKNDFTPEEEEQIRKENAWCED
SEC-MALS
  stoichiometry N: 2

B4: SKR-1 (recombinant, untagged) (natural protein)
chain: MADQKKVSEAAKEREIKISSSDNEIFLVPRNVIRLSNTINTLLMDLGLDDEEGTNAEPIPVQNVTASILKKVISWCNHHHSDPISTEDSDNREKRTDDIGSWDVEFLKVDQGTLFELILAANYLDIKGLLDVTCKTVANMIKGKSPEEIRRTFNIKNDFTPEEEEQIRKENAWCED
6×His-SYP-3
  stoichiometry N: 4 copies of each protein in the complex

B5: 6×His-SKR-1^I155A,W173A (natural protein)
chain: MADQKKVSEAAKEREIKISSSDNEIFLVPRNVIRLSNTINTLLMDLGLDDEEGTNAEPIPVQNVTASILKKVISWCNHHHSDPISTEDSDNREKRTDDIGSWDVEFLKVDQGTLFELILAANYLDIKGLLDVTCKTVANMIKGKSPEEIRRTFNAKNDFTPEEEEQIRKENAACED
SEC-MALS
  stoichiometry N: 2

— paper PMC10866564 (Science Advances, 2024)
